According to patent US20220074937A1 (BIOSWAN LABORATORIES, published 2022):

Experiments:
[1] = molecular target: T1, FMC63 scFv-His tag recombinant protein; experiment: ELISA, FMC63 scFv coated
T1 construct: Expressed in 293T cells, purified on Ni-NTA; also called FMC63 scFv recombinant protein; CD19 CAR scFv recombinant protein
Procedure: (§1) Blocking was then performed with PBST (PBS containing 0.05% Tween 20) containing 5% BSA at 300 μL per well. […] The plate was washed with PBST and then incubated at room temperature for 30 minutes with goat anti-rabbit IgG polyclonal antibody coupled with horseradish peroxidase (HRP).

[2] = molecular target: T1, FMC63 scFv-His tag recombinant protein; experiment: BLI (Fortebio Octet), FMC63 scFv loaded on the sensor, R19mab at 15.6, 7.8, 3.9, 1.95 and 0.975 nM, 1:1 model; the same value stands in rows 1 to 5 of the drawn table (column Kd (M)); the text rounds it to 43 pM
Description: (§2) In short, the biosensor was balanced offline in PBS buffer for 600 seconds, and then detected online for 60 seconds to establish a baseline. […] Data Analysis 6.2 evaluation software was used to analyze the data, and a 1:1 combination model was used for kinetic analysis.

[3] = molecular target: T2, FMC63 antibody (murine anti-CD19 monoclonal antibody, Merck & Millipore MAB1794); experiment: ELISA, FMC63 antibody coated
T2 construct: Whole mouse monoclonal antibody coated on the ELISA plate; also called CD19 antibody
Procedure: as §1

[4] = molecular target: T3, CD19 CAR containing FMC63 scFv, on the cell surface (CD19 CAR-T cells, CD19 CAR-293T cells); experiment: flow cytometry on CD19 CAR-293T cells
T3 construct: Chimeric antigen receptor brought into T cells or 293T cells by lentivirus; also called FMC63 scFv CD19 CAR; CD19 CAR scFv on the cell surface; not shown: hinge, transmembrane and intracellular signalling regions of the CAR
Procedure: (§3) T cells were infected with CD19 CAR lentivirus or BCMA CAR lentivirus to obtain corresponding CAR-T cells. […] 2×10⁵ cells were suspended in 50 μL FACS buffer. 50 μL antibody solution was then added to 50 μL cell suspension and the mixture was incubated on ice for 30 minutes. The cells were then washed twice with cold FACS buffer. […] Table 1) and the mixture was incubated on ice for 30 minutes, after that the cells were washed twice with cold FACS buffer. The cells were resuspended in 200 μL FACS buffer and detected by flow cytometry.
(§4) CD19 CAR-293T cells were obtained by infecting 293T cells with CD19 CAR lentivirus. […] 2×10⁵ CD19 CAR-293T cells were suspended in 50 μL FACS buffer.

[5] = molecular target: T1, FMC63 scFv-His tag recombinant protein; experiment: BLI (Fortebio Octet), FMC63 scFv on the sensor, R19mab 15.6-0.975 nM, 1:1 model
Description: as §2

[6] = molecular target: T3, CD19 CAR containing FMC63 scFv, on the …; experiment: flow cytometry (MFI) on CD19 CAR-293T cells, R19mab titrated; printed beside EC50 = 1.58 nM, which the text gives
Procedure: as §3, §4

T1 sequence (scFv, as listed by the source): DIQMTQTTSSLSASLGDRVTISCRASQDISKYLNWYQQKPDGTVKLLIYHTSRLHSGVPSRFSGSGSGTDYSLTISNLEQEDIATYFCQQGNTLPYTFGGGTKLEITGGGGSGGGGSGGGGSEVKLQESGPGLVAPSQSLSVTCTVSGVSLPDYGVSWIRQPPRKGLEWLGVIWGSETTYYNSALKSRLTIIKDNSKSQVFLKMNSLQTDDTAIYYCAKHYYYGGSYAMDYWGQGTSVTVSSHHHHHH
T3 sequence (chain, as listed by the source): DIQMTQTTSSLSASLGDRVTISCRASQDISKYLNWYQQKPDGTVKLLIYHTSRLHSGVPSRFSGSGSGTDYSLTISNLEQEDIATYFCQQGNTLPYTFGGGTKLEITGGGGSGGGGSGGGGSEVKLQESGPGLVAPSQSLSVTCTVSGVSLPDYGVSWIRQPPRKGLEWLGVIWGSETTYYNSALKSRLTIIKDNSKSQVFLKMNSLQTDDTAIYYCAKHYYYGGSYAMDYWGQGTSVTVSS

EC50 [1]: 0.307 nM | Kd [2]: 0.0431 nM | EC50 [3]: 0.253 nM | EC50 [4]: 1.58 nM | Kd [5]: 0.043 nM | EC50 [6]: 0.237 µg/mL
B1: rabbit monoclonal antibody R19mab against FMC63 scFv (antibody, V domains shown)
VH: QSLEESGGRLVTPGTPLTLTCTVSGIDFRNYGVSWVRQAPGKGLEWIGIFSSSGSTYYATWAKGRFTISKASSTTVDLKMTSLTTEDTATYFCARHPGPTNGWKLWGPGTLVTVSS
VL: DVVMTQTPASVEAPVGGTVTIKCQASQSVSGYCSWYQQKPGQPPKLLIYRASTLESGVPSRFSGSGSGTDFTLTISDLECADAATYYCQSNYNSGSSSSAAAFGGGTEVVVK
notes: Rabbit monoclonal IgG, expressed in 293T cells and purified on Protein A; also called No.0231 (rabbit B cell clone)
